Laboratory results published in patent US20200308270A1 (Zymeworks, published 2020).

Target: T1, recombinant human HER3 (human, UniProt P21860 20-643)
T1 construct: Bought reagent
Assay: SPR (Biacore T200), HER3 captured via anti-His, Fab analyte;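 note: single cycle kinetics with five Fab concentrations, referenced against a blank flow cell and mock-buffer injections, sensorgrams fit to a 1:1 binding model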
Method: HER3 affinity determination in Fabs was carried out as follows. The screening of Fabs (preparative SEC purified) for binding to HER3 antigen occurred in two steps: an indirect capture of HER3 onto the anti-His antibody, followed by the injection of five concentrations of Fabs, for kinetic analysis using single cycle kinetics. […] HER3 was injected at 4-8 μg/mL over the active flow cell for 60 s at a flow rate of 10 μL/min. […] HER3 was not captured on the reference (blank) flow cell. […] The captured HER3 surfaces were regenerated by 10 mM glycine pH 1.5 for 120 s at 30 μL/min to prepare the surfaces for the next injection cycle. At least two mock-buffer injections were performed for each analyte injection and used for referencing. The resulting single cycle kinetics sensorgrams were analyzed using Biacore T200 BiaEvaluation software version 3.0 and fit to the 1:1 binding model.

Binder | Kd [µM]
H3 designed Vlambda-Ckappa chimeric Fab, design 18 (E83F_D85T_T105E) (Fab, name in Kabat numbering, V domains shown) VH: QVQLQESGGGLVKPGGSLRLSCAASGFTFSSYWMSWVRQAPGKGLEWVANINRDGSASYYVDSVKGRFTISRDDAKNSLYLQMNSLRAEDTAVYYCARDRGVGYFDLWGRGTLVTVSS VL: QSALTQPASVSGSPGQSITISCTGTSSDVGGYNFVSWYQQHPGKAPKLMIYDVSDRPSGVSDRFSGSKSGNTASLIISGLQADDFATYYCSSYGSSSTHVIFGGGTKVEVLR | 0.0905
H3 designed Vlambda-Ckappa chimeric Fab, design 17 (E83F_D85T) (Fab, name in Kabat numbering, V domains shown) VH: QVQLQESGGGLVKPGGSLRLSCAASGFTFSSYWMSWVRQAPGKGLEWVANINRDGSASYYVDSVKGRFTISRDDAKNSLYLQMNSLRAEDTAVYYCARDRGVGYFDLWGRGTLVTVSS VL: QSALTQPASVSGSPGQSITISCTGTSSDVGGYNFVSWYQQHPGKAPKLMIYDVSDRPSGVSDRFSGSKSGNTASLIISGLQADDFATYYCSSYGSSSTHVIFGGGTKVTVLR | 0.0831
H3 designed Vlambda-Ckappa chimeric Fab, design 19 (E83F_D85V_T105E) (Fab, name in Kabat numbering, V domains shown) VH: QVQLQESGGGLVKPGGSLRLSCAASGFTFSSYWMSWVRQAPGKGLEWVANINRDGSASYYVDSVKGRFTISRDDAKNSLYLQMNSLRAEDTAVYYCARDRGVGYFDLWGRGTLVTVSS VL: QSALTQPASVSGSPGQSITISCTGTSSDVGGYNFVSWYQQHPGKAPKLMIYDVSDRPSGVSDRFSGSKSGNTASLIISGLQADDFAVYYCSSYGSSSTHVIFGGGTKVEVLR | 0.083
H3 designed Vlambda-Ckappa chimeric Fab, design 22 (E83F_D85T_T105E_V106I_L106AK) (Fab, V domains shown) VH: QVQLQESGGGLVKPGGSLRLSCAASGFTFSSYWMSWVRQAPGKGLEWVANINRDGSASYYVDSVKGRFTISRDDAKNSLYLQMNSLRAEDTAVYYCARDRGVGYFDLWGRGTLVTVSS VL: QSALTQPASVSGSPGQSITISCTGTSSDVGGYNFVSWYQQHPGKAPKLMIYDVSDRPSGVSDRFSGSKSGNTASLIISGLQADDFATYYCSSYGSSSTHVIFGGGTKVEIKR | 0.0805
H3 designed Vlambda-Ckappa chimeric Fab, design 23 (E83V) (Fab, name in Kabat numbering, V domains shown) VH: QVQLQESGGGLVKPGGSLRLSCAASGFTFSSYWMSWVRQAPGKGLEWVANINRDGSASYYVDSVKGRFTISRDDAKNSLYLQMNSLRAEDTAVYYCARDRGVGYFDLWGRGTLVTVSS VL: QSALTQPASVSGSPGQSITISCTGTSSDVGGYNFVSWYQQHPGKAPKLMIYDVSDRPSGVSDRFSGSKSGNTASLIISGLQADDVADYYCSSYGSSSTHVIFGGGTKVTVLR | 0.0957
H3 designed Vlambda-Ckappa chimeric Fab, design 14 (E83F) (Fab, name in Kabat numbering, V domains shown) VH: QVQLQESGGGLVKPGGSLRLSCAASGFTFSSYWMSWVRQAPGKGLEWVANINRDGSASYYVDSVKGRFTISRDDAKNSLYLQMNSLRAEDTAVYYCARDRGVGYFDLWGRGTLVTVSS VL: QSALTQPASVSGSPGQSITISCTGTSSDVGGYNFVSWYQQHPGKAPKLMIYDVSDRPSGVSDRFSGSKSGNTASLIISGLQADDFADYYCSSYGSSSTHVIFGGGTKVTVLR | 0.0926
H3 designed Vlambda-Ckappa chimeric Fab, design 15 (E83F_T105E) (Fab, name in Kabat numbering, V domains shown) VH: QVQLQESGGGLVKPGGSLRLSCAASGFTFSSYWMSWVRQAPGKGLEWVANINRDGSASYYVDSVKGRFTISRDDAKNSLYLQMNSLRAEDTAVYYCARDRGVGYFDLWGRGTLVTVSS VL: QSALTQPASVSGSPGQSITISCTGTSSDVGGYNFVSWYQQHPGKAPKLMIYDVSDRPSGVSDRFSGSKSGNTASLIISGLQADDFADYYCSSYGSSSTHVIFGGGTKVEVLR | 0.0908
H3 Vlambda-Ckappa chimeric Fab (Fab, V domains shown, Parent chimeric Fab without stabilizing substitutions; also called chimera; VL-CK chimeric Fab) VH: QVQLQESGGGLVKPGGSLRLSCAASGFTFSSYWMSWVRQAPGKGLEWVANINRDGSASYYVDSVKGRFTISRDDAKNSLYLQMNSLRAEDTAVYYCARDRGVGYFDLWGRGTLVTVSS VL: QSALTQPASVSGSPGQSITISCTGTSSDVGGYNFVSWYQQHPGKAPKLMIYDVSDRPSGVSDRFSGSKSGNTASLIISGLQADDEADYYCSSYGSSSTHVIFGGGTKVTVLR | 0.0927
H3 designed Vlambda-Ckappa chimeric Fab, design 21 (E83F_D85V_T105E_V106I) (Fab, name in Kabat numbering, V domains shown) VH: QVQLQESGGGLVKPGGSLRLSCAASGFTFSSYWMSWVRQAPGKGLEWVANINRDGSASYYVDSVKGRFTISRDDAKNSLYLQMNSLRAEDTAVYYCARDRGVGYFDLWGRGTLVTVSS VL: QSALTQPASVSGSPGQSITISCTGTSSDVGGYNFVSWYQQHPGKAPKLMIYDVSDRPSGVSDRFSGSKSGNTASLIISGLQADDFAVYYCSSYGSSSTHVIFGGGTKVEILR | 0.0826
H3 designed Vlambda-Ckappa chimeric Fab, design 20 (E83F_D85T_T105E_V106I) (Fab, name in Kabat numbering, V domains shown) VH: QVQLQESGGGLVKPGGSLRLSCAASGFTFSSYWMSWVRQAPGKGLEWVANINRDGSASYYVDSVKGRFTISRDDAKNSLYLQMNSLRAEDTAVYYCARDRGVGYFDLWGRGTLVTVSS VL: QSALTQPASVSGSPGQSITISCTGTSSDVGGYNFVSWYQQHPGKAPKLMIYDVSDRPSGVSDRFSGSKSGNTASLIISGLQADDFATYYCSSYGSSSTHVIFGGGTKVEILR | 0.0858
H3 designed Vlambda-Ckappa chimeric Fab, design 16 (E83F_V106I) (Fab, name in Kabat numbering, V domains shown) VH: QVQLQESGGGLVKPGGSLRLSCAASGFTFSSYWMSWVRQAPGKGLEWVANINRDGSASYYVDSVKGRFTISRDDAKNSLYLQMNSLRAEDTAVYYCARDRGVGYFDLWGRGTLVTVSS VL: QSALTQPASVSGSPGQSITISCTGTSSDVGGYNFVSWYQQHPGKAPKLMIYDVSDRPSGVSDRFSGSKSGNTASLIISGLQADDFADYYCSSYGSSSTHVIFGGGTKVTILR | 0.0885
H3 designed Vlambda-Ckappa chimeric Fab, design 24 (E83V_T105E) (Fab, name in Kabat numbering, V domains shown) VH: QVQLQESGGGLVKPGGSLRLSCAASGFTFSSYWMSWVRQAPGKGLEWVANINRDGSASYYVDSVKGRFTISRDDAKNSLYLQMNSLRAEDTAVYYCARDRGVGYFDLWGRGTLVTVSS VL: QSALTQPASVSGSPGQSITISCTGTSSDVGGYNFVSWYQQHPGKAPKLMIYDVSDRPSGVSDRFSGSKSGNTASLIISGLQADDVADYYCSSYGSSSTHVIFGGGTKVEVLR | 0.102

Other lines, results leading:

Kd [µM] | Binder
0.0841 | H3 designed Vlambda-Ckappa chimeric Fab, design 27 (E83V_D85T_T105E) (Fab, name in Kabat numbering, V domains shown) VH: QVQLQESGGGLVKPGGSLRLSCAASGFTFSSYWMSWVRQAPGKGLEWVANINRDGSASYYVDSVKGRFTISRDDAKNSLYLQMNSLRAEDTAVYYCARDRGVGYFDLWGRGTLVTVSS VL: QSALTQPASVSGSPGQSITISCTGTSSDVGGYNFVSWYQQHPGKAPKLMIYDVSDRPSGVSDRFSGSKSGNTASLIISGLQADDVATYYCSSYGSSSTHVIFGGGTKVEVLR
0.0821 | H3 designed Vlambda-Ckappa chimeric Fab, design 26 (E83V_D85T) (Fab, name in Kabat numbering, V domains shown) VH: QVQLQESGGGLVKPGGSLRLSCAASGFTFSSYWMSWVRQAPGKGLEWVANINRDGSASYYVDSVKGRFTISRDDAKNSLYLQMNSLRAEDTAVYYCARDRGVGYFDLWGRGTLVTVSS VL: QSALTQPASVSGSPGQSITISCTGTSSDVGGYNFVSWYQQHPGKAPKLMIYDVSDRPSGVSDRFSGSKSGNTASLIISGLQADDVATYYCSSYGSSSTHVIFGGGTKVTVLR
0.0951 | H3 designed Vlambda-Ckappa chimeric Fab, design 30 (E83I) (Fab, name in Kabat numbering, V domains shown) VH: QVQLQESGGGLVKPGGSLRLSCAASGFTFSSYWMSWVRQAPGKGLEWVANINRDGSASYYVDSVKGRFTISRDDAKNSLYLQMNSLRAEDTAVYYCARDRGVGYFDLWGRGTLVTVSS VL: QSALTQPASVSGSPGQSITISCTGTSSDVGGYNFVSWYQQHPGKAPKLMIYDVSDRPSGVSDRFSGSKSGNTASLIISGLQADDIADYYCSSYGSSSTHVIFGGGTKVTVLR
0.0806 | H3 designed Vlambda-Ckappa chimeric Fab, design 25 (E83V_V106I) (Fab, name in Kabat numbering, V domains shown) VH: QVQLQESGGGLVKPGGSLRLSCAASGFTFSSYWMSWVRQAPGKGLEWVANINRDGSASYYVDSVKGRFTISRDDAKNSLYLQMNSLRAEDTAVYYCARDRGVGYFDLWGRGTLVTVSS VL: QSALTQPASVSGSPGQSITISCTGTSSDVGGYNFVSWYQQHPGKAPKLMIYDVSDRPSGVSDRFSGSKSGNTASLIISGLQADDVADYYCSSYGSSSTHVIFGGGTKVTILR
0.0754 | H3 designed Vlambda-Ckappa chimeric Fab, design 34 (E83I_D85T_T105E_V106I) (Fab, name in Kabat numbering, V domains shown) VH: QVQLQESGGGLVKPGGSLRLSCAASGFTFSSYWMSWVRQAPGKGLEWVANINRDGSASYYVDSVKGRFTISRDDAKNSLYLQMNSLRAEDTAVYYCARDRGVGYFDLWGRGTLVTVSS VL: QSALTQPASVSGSPGQSITISCTGTSSDVGGYNFVSWYQQHPGKAPKLMIYDVSDRPSGVSDRFSGSKSGNTASLIISGLQADDIATYYCSSYGSSSTHVIFGGGTKVEILR
0.077 | H3 designed Vlambda-Ckappa chimeric Fab, design 29 (E83V_D85T_T105E_V106I) (Fab, name in Kabat numbering, V domains shown) VH: QVQLQESGGGLVKPGGSLRLSCAASGFTFSSYWMSWVRQAPGKGLEWVANINRDGSASYYVDSVKGRFTISRDDAKNSLYLQMNSLRAEDTAVYYCARDRGVGYFDLWGRGTLVTVSS VL: QSALTQPASVSGSPGQSITISCTGTSSDVGGYNFVSWYQQHPGKAPKLMIYDVSDRPSGVSDRFSGSKSGNTASLIISGLQADDVATYYCSSYGSSSTHVIFGGGTKVEILR
0.089 | H3 designed Vlambda-Ckappa chimeric Fab, design 33 (E83I_D85T_T105E) (Fab, name in Kabat numbering, V domains shown) VH: QVQLQESGGGLVKPGGSLRLSCAASGFTFSSYWMSWVRQAPGKGLEWVANINRDGSASYYVDSVKGRFTISRDDAKNSLYLQMNSLRAEDTAVYYCARDRGVGYFDLWGRGTLVTVSS VL: QSALTQPASVSGSPGQSITISCTGTSSDVGGYNFVSWYQQHPGKAPKLMIYDVSDRPSGVSDRFSGSKSGNTASLIISGLQADDIATYYCSSYGSSSTHVIFGGGTKVEVLR
0.0892 | H3 designed Vlambda-Ckappa chimeric Fab, design 28 (E83V_D85V_T105E) (Fab, name in Kabat numbering, V domains shown) VH: QVQLQESGGGLVKPGGSLRLSCAASGFTFSSYWMSWVRQAPGKGLEWVANINRDGSASYYVDSVKGRFTISRDDAKNSLYLQMNSLRAEDTAVYYCARDRGVGYFDLWGRGTLVTVSS VL: QSALTQPASVSGSPGQSITISCTGTSSDVGGYNFVSWYQQHPGKAPKLMIYDVSDRPSGVSDRFSGSKSGNTASLIISGLQADDVAVYYCSSYGSSSTHVIFGGGTKVEVLR
0.0838 | H3 designed Vlambda-Ckappa chimeric Fab, design 32 (E83I_D85T) (Fab, name in Kabat numbering, V domains shown) VH: QVQLQESGGGLVKPGGSLRLSCAASGFTFSSYWMSWVRQAPGKGLEWVANINRDGSASYYVDSVKGRFTISRDDAKNSLYLQMNSLRAEDTAVYYCARDRGVGYFDLWGRGTLVTVSS VL: QSALTQPASVSGSPGQSITISCTGTSSDVGGYNFVSWYQQHPGKAPKLMIYDVSDRPSGVSDRFSGSKSGNTASLIISGLQADDIATYYCSSYGSSSTHVIFGGGTKVTVLR
0.0827 | H3 designed Vlambda-Ckappa chimeric Fab, design 31 (E83I_T105E) (Fab, name in Kabat numbering, V domains shown) VH: QVQLQESGGGLVKPGGSLRLSCAASGFTFSSYWMSWVRQAPGKGLEWVANINRDGSASYYVDSVKGRFTISRDDAKNSLYLQMNSLRAEDTAVYYCARDRGVGYFDLWGRGTLVTVSS VL: QSALTQPASVSGSPGQSITISCTGTSSDVGGYNFVSWYQQHPGKAPKLMIYDVSDRPSGVSDRFSGSKSGNTASLIISGLQADDIADYYCSSYGSSSTHVIFGGGTKVEVLR
